Target: T1, human endothelial lipase (EL) (human, UniProt Q9Y5X9 21-500, limits assumed)
T1 construct: The assay used endogenous EL in human plasma and a bought recombinant EL standard (Origene Technologies); also called human EL
T1 sequence: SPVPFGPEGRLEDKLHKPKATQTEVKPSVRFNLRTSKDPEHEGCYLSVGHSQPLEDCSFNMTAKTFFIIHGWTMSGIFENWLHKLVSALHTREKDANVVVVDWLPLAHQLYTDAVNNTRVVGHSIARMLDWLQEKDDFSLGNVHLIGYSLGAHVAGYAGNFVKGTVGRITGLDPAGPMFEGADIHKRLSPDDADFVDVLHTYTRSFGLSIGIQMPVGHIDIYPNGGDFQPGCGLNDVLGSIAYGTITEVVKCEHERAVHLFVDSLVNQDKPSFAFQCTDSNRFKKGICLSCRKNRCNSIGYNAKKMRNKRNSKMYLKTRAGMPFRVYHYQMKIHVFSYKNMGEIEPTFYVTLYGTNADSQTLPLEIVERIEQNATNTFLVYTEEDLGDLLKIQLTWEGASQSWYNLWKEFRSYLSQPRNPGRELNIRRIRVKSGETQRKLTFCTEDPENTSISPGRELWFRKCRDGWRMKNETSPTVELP
Experiment: MSD immunoassay of human plasma: plate coated with MEDI5884 captures EL, which is detected with a biotinylated EL detection antibody and streptavidin sulfo-TAG. Plasma came from subjects with stable coronary heart disease given three monthly subcutaneous doses of MEDI5884 or placebo. The loss of capturable EL after dosing is what the filing calls target engagement.
Procedure: In particular, the amount of hEL bound by MEDI5884 in human plasma was measured using the Meso Scale Diagnostics (MSD) based immunoassay platform. Briefly, wells on a 96-well plate were coated with MEDI5884 and incubated overnight at 4° C. The next day, wells were washed with PBS containing 0.05% Tween20 wash buffer and blocked with I-Block Buffer (Applied Biosystems) for one hour at room temperature. Plates were washed. Then recombinant EL protein standard (Origene Technologies) and human plasma samples were added to corresponding wells and incubated for one hour at room temperature. After washing, a biotinylated EL detection antibody (Origene Technologies) was added to corresponding wells and incubated for one hour at room temperature. Plates were washed, then a streptavidin, sulfo-TAG antibody (MSD) was added to corresponding wells and incubated for one hour at room temperature. After washing, wells were incubated with Read buffer (MSD). Plates were read using the MESO Sector S 600 plate reader, and data was analyzed using the MSD Discovery Workbench software analysis program.

binding result: binds
B1: MEDI5884 (antibody, human IgG4 S228P, kappa, V domains shown)
VH: QVQLVQSGSELKKPGASVKVSCKASGYTFTNYALNWVRQAPGQGLEWMGWINTYSGVGTYAGEFKGRFVFSLDTSVSTAYLQISSLKAEDTAVYYCARRGFYGRRFFDVWGKGTTVTVSS
VL: DIQLTQSPSSLSASVGDRVTITCKASQSVDYDVDSYMHWYQQKPGKAPKLLIYAASNLASGVPSRFSGSGSGTDFTFTISSLQPEDIATYYCQQTIEDPPTFGGGTKVEIKR
notes: Humanized anti-EL antibody, human IgG4P heavy chain and kappa light chain; It was coated on the plate as the capture reagent in the target engagement immunoassay; also called S6F1-4P

From patent US20230045712A1 (AstraZeneca / MedImmune, published 2023)
